Sequences and labels used below:
B1: LINE1-mini (parent)
chain: GGCAGAGCUCAACACAGCGUGGCAAAGUGGCUGUGGCUAGACUGCC

This data set covers variants of B1. The data set is described as follows: self-cleavage, relative activity (ratio to wild type); higher = more cleavage; in vitro, sequencing; the parent is a self-cleaving ribozyme.
With GACAGAGCUCAACACAGCGUGGCAAGGUGGCUGUGGCUAGACUGCC, the self-cleavage came out at 0.6.
GACAGAGCUCAACACAGCGUGGCAACGUGGCUGUGGCUAGACUGCC: the self-cleavage was 0.9.
Turning to GACAGAGCUCAACACAGCGUGGCAAUGUGGCUGUGGCUAGACUGCC, the self-cleavage worked out at 1.83.
Next, UGCAGAGCUCAACACAGCGUGGCAAAGUGGCUGGGGCUAGACUGCC: 0.06; UGCAGAGCUCAACACAGCGUGGCAAAGUGGCUGAGGCUAGACUGCC: 0.05; UGCAGAGCUCAACACAGCGUGGCAAAGUGGCUGCGGCUAGACUGCC: 0.06.
On to GACAGAGCUCAACACGGCGUGGCAAAGUGGCUGUGGCUAGACUGCC, for which the self-cleavage came out at 0.26.
As for GACAGAGCUCAACACCGCGUGGCAAAGUGGCUGUGGCUAGACUGCC, the self-cleavage worked out at 0.16.
Next, GACAGAGCUCAACACUGCGUGGCAAAGUGGCUGUGGCUAGACUGCC: 0.33.
In the case of GACAGAGCUCAACACAACGUGGCAAAGUGGCUGUGGCUAGACUGCC, the self-cleavage stood at 0.2.
The same measure for GACAGAGCUCAACACAUCGUGGCAAAGUGGCUGUGGCUAGACUGCC: 0.19.
The same measure for GACAGAGCUCAACACACCGUGGCAAAGUGGCUGUGGCUAGACUGCC: 0.32.
As to GACAGAUCUCAACACAGCGUGGCAAAGUGGCUGUGGCUAGACUGCC, the self-cleavage was found to be 0.17.
The same measure for GACAGACCUCAACACAGCGUGGCAAAGUGGCUGUGGCUAGACUGCC: 0.39; for GACAGAACUCAACACAGCGUGGCAAAGUGGCUGUGGCUAGACUGCC: 0.86.
With GACAGAGCUCAACACAGCGUGGCAAAGUGGCUGUGGCUAGUCUGCC, the self-cleavage was determined as 0.66.
Next, GACAGAGCUCAACACAGCGUGGCAAAGUGGCUGUGGCUAGGCUGCC: 0.4; GACAGAGCUCAACACAGCGUGGCAAAGUGGCUGUGGCUAGCCUGCC: 0.08; GACUGAGCUCAACACAGCGUGGCAAAGUGGCUGUGGCUAGACUGCC: 0.58.
Next, GACCGAGCUCAACACAGCGUGGCAAAGUGGCUGUGGCUAGACUGCC: 0.67; GACGGAGCUCAACACAGCGUGGCAAAGUGGCUGUGGCUAGACUGCC: 0.42; GACAGAGCUCAACACAGCGUGCCAAAGUGGCUGUGGCUAGACUGCC: 0.29.
Take GACAGAGCUCAACACAGCGUGACAAAGUGGCUGUGGCUAGACUGCC: the self-cleavage was 0.8.
On to GACAGAGCUCAACACAGCGUGUCAAAGUGGCUGUGGCUAGACUGCC, for which the self-cleavage stood at 0.89.
As to GACAGAGCUCAACACAGCGUGGCAAAGUGGCUGUGGCUGGACUGCC, the self-cleavage was determined as 0.22.
GACAGAGCUCAACACAGCGUGGCAAAGUGGCUGUGGCUCGACUGCC: the self-cleavage was determined as 0.54.
The same measure for GACAGAGCUCAACACAGCGUGGCAAAGUGGCUGUGGCUUGACUGCC: 0.76; for UGCAGAGCUCAACACAGCGUGGCAAAGUGGCGGUGGCUAGACUGCC: 0.05; for UGCAGAGCUCAACACAGCGUGGCAAAGUGGCAGUGGCUAGACUGCC: 0.06.
For UGCAGAGCUCAACACAGCGUGGCAAAGUGGCCGUGGCUAGACUGCC, the self-cleavage is 0.08.
The same measure for GACACAGCUCAACACAGCGUGGCAAAGUGGCUGUGGCUAGACUGCC: 0.06; for GACAUAGCUCAACACAGCGUGGCAAAGUGGCUGUGGCUAGACUGCC: 0.27; for GACAAAGCUCAACACAGCGUGGCAAAGUGGCUGUGGCUAGACUGCC: 0.53.
Take GACAGAGCUCAACACAGCGUGGCAAAGUUGCUGUGGCUAGACUGCC: the self-cleavage amounted to 0.9.
GACAGAGCUCAACACAGCGUGGCAAAGUAGCUGUGGCUAGACUGCC: the self-cleavage was determined as 0.61.
Turning to GACAGAGCUCAACACAGCGUGGCAAAGUCGCUGUGGCUAGACUGCC, the self-cleavage stood at 0.65.
As to GACAGUGCUCAACACAGCGUGGCAAAGUGGCUGUGGCUAGACUGCC, the self-cleavage turned out to be 1.
With GACAGCGCUCAACACAGCGUGGCAAAGUGGCUGUGGCUAGACUGCC, the self-cleavage is 0.33.
GACAGGGCUCAACACAGCGUGGCAAAGUGGCUGUGGCUAGACUGCC: the self-cleavage was found to be 0.13.
Next, GACAGAGCUCAACACAGGGUGGCAAAGUGGCUGUGGCUAGACUGCC: 0.46; GACAGAGCUCAACACAGUGUGGCAAAGUGGCUGUGGCUAGACUGCC: 0.46; GACAGAGCUCAACACAGAGUGGCAAAGUGGCUGUGGCUAGACUGCC: 0.16.
Next, GACAGAGCUCAACACAGCUUGGCAAAGUGGCUGUGGCUAGACUGCC: 0.72; GACAGAGCUCAACACAGCCUGGCAAAGUGGCUGUGGCUAGACUGCC: 0.19.
Consider GACAGAGCUCAACACAGCAUGGCAAAGUGGCUGUGGCUAGACUGCC, for which the self-cleavage is 1.72.
Next, GACAGAGCUCAACGCAGCGUGGCAAAGUGGCUGUGGCUAGACUGCC: 0.81.
With GACAGAGCUCAACUCAGCGUGGCAAAGUGGCUGUGGCUAGACUGCC, the self-cleavage is 0.37.
Next, GACAGAGCUCAACCCAGCGUGGCAAAGUGGCUGUGGCUAGACUGCC: 0.15; GACAGAGCUCAACACAGCGUGGCAAAGUGGCUGUGGCUAGACUGCG: 0.96.
The same measure for GACAGAGCUCAACACAGCGUGGCAAAGUGGCUGUGGCUAGACUGCA: 1.23.
Next, GACAGAGCUCAACACAGCGUGGCAAAGUGGCUGUGGCUAGACUGCU: 0.87; GACAGAGAUCAACACAGCGUGGCAAAGUGGCUGUGGCUAGACUGCC: 0.61; GACAGAGGUCAACACAGCGUGGCAAAGUGGCUGUGGCUAGACUGCC: 0.13.
On to GACAGAGUUCAACACAGCGUGGCAAAGUGGCUGUGGCUAGACUGCC, for which the self-cleavage came to 0.43.
Next, GACAGAGCUCAACACAGCGUGGCAAAGUGGCUGUGGCUAGACUGCC: 0.92; GACAGAGCUCAACACAGCGUGGAAAAGUGGCUGUGGCUAGACUGCC: 1.04.
